Non-standard residues stand in square brackets, D forms with d. No end group written: not given here. *: point of attachment. Palmitoyl = CCCCCCCCCCCCCCCC(=O)*; AEEEA = NCCOCCOCCOCC(=O)O; AEEA = NCCOCCOCC(=O)O
B1: SEQ ID NO: 78 (peptide)
peptide: [AEEEA]K(Palmitoyl)VQKLAHQIYQFTDKDKDNSAPVDPSSPHSY-NH2
modifications: N-terminus assumed
SMILES: CCCCCCCCCCCCCCCC(=O)NCCCC[C@H](NC(=O)COCCOCCOCCN)C(=O)N[C@H](C(=O)N[C@@H](CCC(N)=O)C(=O)N[C@@H](CCCCN)C(=O)N[C@@H](CC(C)C)C(=O)N[C@@H](C)C(=O)N[C@@H](Cc1c[nH]cn1)C(=O)N[C@@H](CCC(N)=O)C(=O)N[C@H](C(=O)N[C@@H](Cc1ccc(O)cc1)C(=O)N[C@@H](CCC(N)=O)C(=O)N[C@@H](Cc1ccccc1)C(=O)N[C@H](C(=O)N[C@@H](CC(=O)O)C(=O)N[C@@H](CCCCN)C(=O)N[C@@H](CC(=O)O)C(=O)N[C@@H](CCCCN)C(=O)N[C@@H](CC(=O)O)C(=O)N[C@@H](CC(N)=O)C(=O)N[C@@H](CO)C(=O)N[C@@H](C)C(=O)N1CCC[C@H]1C(=O)N[C@H](C(=O)N[C@@H](CC(=O)O)C(=O)N1CCC[C@H]1C(=O)N[C@@H](CO)C(=O)N[C@@H](CO)C(=O)N1CCC[C@H]1C(=O)N[C@@H](Cc1c[nH]cn1)C(=O)N[C@@H](CO)C(=O)N[C@@H](Cc1ccc(O)cc1)C(N)=O)C(C)C)[C@@H](C)O)[C@@H](C)CC)C(C)C

The binders below were run against T1, CLR/RAMP2 receptor (UniProt Q16602 23-461; O60895 43-175, limits assumed) (assay: cell-based or functional assay).
T1 sequence (Q16602 23-461 limits assumed, chain 1 of 2): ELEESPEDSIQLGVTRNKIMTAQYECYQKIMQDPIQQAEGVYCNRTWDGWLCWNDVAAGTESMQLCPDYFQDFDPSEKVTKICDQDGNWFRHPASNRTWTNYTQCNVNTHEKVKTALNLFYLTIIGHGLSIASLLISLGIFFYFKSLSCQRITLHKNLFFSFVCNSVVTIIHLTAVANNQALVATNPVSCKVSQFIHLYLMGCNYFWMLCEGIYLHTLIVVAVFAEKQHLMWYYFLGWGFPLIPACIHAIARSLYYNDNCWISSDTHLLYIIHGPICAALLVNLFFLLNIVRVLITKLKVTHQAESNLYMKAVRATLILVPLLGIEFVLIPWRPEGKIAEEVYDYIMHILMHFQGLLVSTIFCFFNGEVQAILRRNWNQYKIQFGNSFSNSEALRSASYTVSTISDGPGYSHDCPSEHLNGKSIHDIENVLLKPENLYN
T1 sequence (O60895 43-175 limits assumed, chain 2 of 2): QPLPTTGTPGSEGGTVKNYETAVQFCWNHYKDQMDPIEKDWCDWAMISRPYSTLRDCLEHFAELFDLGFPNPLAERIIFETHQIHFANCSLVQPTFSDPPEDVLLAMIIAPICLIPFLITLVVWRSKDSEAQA

With Ac-VTHRLAGLLSRFTDKDKDNVAPRSKISPQGY-NH2 [SEQ ID NO: 115] as the binder, how does the “IC50 (nM), ADM-stimulated CLR/RAMP2 arrestin assay” value read?
The value was 117 nM.

For Palmitoyl-KVQKLAHQSAPVDPSSPHSY-NH2 [SEQ ID NO: 124], which “Max Activity % of positive control, ADM-stimulated CLR/RAMP2 antagonist assay” value is on record?
The value was 103 % of positive control.

With Palmitoyl-KVQKLAHQIYSAPVDPSSPHSY-NH2 [SEQ ID NO: 122] as the binder, how does the “IC50 (nM), ADM-stimulated CLR/RAMP2 arrestin assay” value read?
The value was 61 nM.

For Ac-TVQKLAHRLWQLMGPDKDNVAPRSKISPQGY-NH2 [SEQ ID NO: 116], which “IC50 (nM), ADM-stimulated CLR/RAMP2 arrestin assay” value is on record?
Its value is 7.3 nM.

With B1 as the binder, how does the “IC50 (nM), ADM-stimulated CLR/RAMP2 arrestin assay” value read?
The value was 34 nM.

What about the “Max Activity % of positive control, ADM-stimulated CLR/RAMP2 antagonist assay” value of the same binder?
The value was 107 % of positive control.

Which “IC50 (nM), ADM-stimulated CLR/RAMP2 arrestin assay” value does the source give for Palmitoyl-KVQNLSHRLWQLMGPAGSAPVDPSSPHSY-NH2 [SEQ ID NO: 120] here?
Its value is 85 nM.

How did the “IC50 (nM), ADM-stimulated CLR/RAMP2 arrestin assay” value turn out when Palmitoyl-KVQKLAHQIYQFTDKDSAPVDPSSPHSY-NH2 [SEQ ID NO: 121] was run?
The value was 4.9 nM.

How did the “IC50 (nM), ADM-stimulated CLR/RAMP2 arrestin assay” value turn out when [AEEA]K(Palmitoyl)VQKLAHQIYQFTDKDSAPVDPSSPHSY-NH2 [SEQ ID NO: 112] was run?
Its value is 5.3 nM.

With [AEEA]K(Palmitoyl)VQKLAHQIYSAPVDPSSPHSY-NH2 [SEQ ID NO: 114] as the binder, how does the “IC50 (nM), ADM-stimulated CLR/RAMP2 arrestin assay” value read?
The value was 146 nM.

Palmitoyl-KVQKLAHQIYQFTDKDVAPRSKISPQGY-NH2 [SEQ ID NO: 119] was tested. Which “IC50 (nM), ADM-stimulated CLR/RAMP2 arrestin assay” value did it give?
The value was 0.6 nM.

Which “IC50 (nM), ADM-stimulated CLR/RAMP2 arrestin assay” value does the source give for Palmitoyl-KVQKLAHQISAPVDPSSPHSY-NH2 [SEQ ID NO: 123] here?
The value was 50 nM.

The binders below were run against T2, CLR/RAMP3 receptor (UniProt Q16602 23-461; O60896 24-148, limits assumed) (assay: cell-based or functional assay).
T2 sequence (Q16602 23-461 limits assumed, chain 1 of 2): as the sequence (Q16602 23-461 limits assumed, chain 1 of 2) above
T2 sequence (O60896 24-148 limits assumed, chain 2 of 2): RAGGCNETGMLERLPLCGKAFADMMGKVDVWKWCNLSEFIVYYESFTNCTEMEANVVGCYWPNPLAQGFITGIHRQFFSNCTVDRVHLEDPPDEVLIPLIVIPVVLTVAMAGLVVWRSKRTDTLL

Which “IC50 (nM), CLR/RAMP3 cAMP antagonist assay” value does the source give for Ac-VTHRLAGLLSRFTDKDKDNVAPRSKISPQGY-NH2 [SEQ ID NO: 115] here?
The value was 115 nM.

With Palmitoyl-KVQKLAHQSAPVDPSSPHSY-NH2 [SEQ ID NO: 124] as the binder, how does the “Max Activity % of positive control, CLR/RAMP3 antagonist assay” value read?
The value was 102 % of positive control.

Palmitoyl-KVQKLAHQIYSAPVDPSSPHSY-NH2 [SEQ ID NO: 122] was tested. Which “IC50 (nM), CLR/RAMP3 cAMP antagonist assay” value did it give?
The value was 4.1 nM.

How did the “IC50 (nM), CLR/RAMP3 cAMP antagonist assay” value turn out when Ac-TVQKLAHRLWQLMGPDKDNVAPRSKISPQGY-NH2 [SEQ ID NO: 116] was run?
The value was 53 nM.

With B1 as the binder, how does the “IC50 (nM), CLR/RAMP3 cAMP antagonist assay” value read?
Its value is 0.8 nM.

And the “Max Activity % of positive control, CLR/RAMP3 antagonist assay” value?
Its value is 101 % of positive control.

For Palmitoyl-KVQNLSHRLWQLMGPAGSAPVDPSSPHSY-NH2 [SEQ ID NO: 120], which “IC50 (nM), CLR/RAMP3 cAMP antagonist assay” value is on record?
The value was 9.2 nM.

For Palmitoyl-KVQKLAHQIYQFTDKDSAPVDPSSPHSY-NH2 [SEQ ID NO: 121], which “IC50 (nM), CLR/RAMP3 cAMP antagonist assay” value is on record?
The value was 1.8 nM.

[AEEA]K(Palmitoyl)VQKLAHQIYQFTDKDSAPVDPSSPHSY-NH2 [SEQ ID NO: 112] was tested. Which “IC50 (nM), CLR/RAMP3 cAMP antagonist assay” value did it give?
Its value is 2.3 nM.

For [AEEA]K(Palmitoyl)VQKLAHQIYSAPVDPSSPHSY-NH2 [SEQ ID NO: 114], which “IC50 (nM), CLR/RAMP3 cAMP antagonist assay” value is on record?
The value was 8.4 nM.

With Palmitoyl-KVQKLAHQIYQFTDKDVAPRSKISPQGY-NH2 [SEQ ID NO: 119] as the binder, how does the “IC50 (nM), CLR/RAMP3 cAMP antagonist assay” value read?
Its value is 1.5 nM.

Each binder was assayed against T3, CLR/RAMP1 receptor (UniProt Q16602 23-461; O60894 27-148, limits assumed) (assay: cell-based or functional assay).
T3 sequence (Q16602 23-461 limits assumed, chain 1 of 2): as the sequence (Q16602 23-461 limits assumed, chain 1 of 2) above
T3 sequence (O60894 27-148 limits assumed, chain 2 of 2): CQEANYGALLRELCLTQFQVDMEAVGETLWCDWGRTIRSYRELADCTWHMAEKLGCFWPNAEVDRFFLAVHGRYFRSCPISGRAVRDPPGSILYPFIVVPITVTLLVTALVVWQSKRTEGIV

How did the “IC50 (nM), CGRP-stimulated CLR/RAMP1 cAMP assay” value turn out when Ac-VTHRLAGLLSRFTDKDKDNVAPRSKISPQGY-NH2 [SEQ ID NO: 115] was run?
Its value is 1880 nM.

Which “Max Activity % of positive control, CGRP-stimulated CLR/RAMP1 antagonist assay” value does the source give for Palmitoyl-KVQKLAHQSAPVDPSSPHSY-NH2 [SEQ ID NO: 124] here?
The value was 95 % of positive control.

How did the “IC50 (nM), CGRP-stimulated CLR/RAMP1 cAMP assay” value turn out when Palmitoyl-KVQKLAHQIYSAPVDPSSPHSY-NH2 [SEQ ID NO: 122] was run?
The value was 7.3 nM.

Which “IC50 (nM), CGRP-stimulated CLR/RAMP1 cAMP assay” value does the source give for Ac-TVQKLAHRLWQLMGPDKDNVAPRSKISPQGY-NH2 [SEQ ID NO: 116] here?
Its value is 152 nM.

For B1, which “IC50 (nM), CGRP-stimulated CLR/RAMP1 cAMP assay” value is on record?
Its value is 4.8 nM.

What about the “Max Activity % of positive control, CGRP-stimulated CLR/RAMP1 antagonist assay” value of the same binder?
Its value is 104 % of positive control.

With Palmitoyl-KVQNLSHRLWQLMGPAGSAPVDPSSPHSY-NH2 [SEQ ID NO: 120] as the binder, how does the “IC50 (nM), CGRP-stimulated CLR/RAMP1 cAMP assay” value read?
The value was 5.8 nM.

Which “IC50 (nM), CGRP-stimulated CLR/RAMP1 cAMP assay” value does the source give for Palmitoyl-KVQKLAHQIYQFTDKDSAPVDPSSPHSY-NH2 [SEQ ID NO: 121] here?
Its value is 3.2 nM.

[AEEA]K(Palmitoyl)VQKLAHQIYQFTDKDSAPVDPSSPHSY-NH2 [SEQ ID NO: 112] was tested. Which “IC50 (nM), CGRP-stimulated CLR/RAMP1 cAMP assay” value did it give?
The value was 1.8 nM.

With [AEEA]K(Palmitoyl)VQKLAHQIYSAPVDPSSPHSY-NH2 [SEQ ID NO: 114] as the binder, how does the “IC50 (nM), CGRP-stimulated CLR/RAMP1 cAMP assay” value read?
The value was 4.8 nM.

With Palmitoyl-KVQKLAHQIYQFTDKDVAPRSKISPQGY-NH2 [SEQ ID NO: 119] as the binder, how does the “IC50 (nM), CGRP-stimulated CLR/RAMP1 cAMP assay” value read?
The value was 21 nM.

Palmitoyl-KVQKLAHQISAPVDPSSPHSY-NH2 [SEQ ID NO: 123] was tested. Which “IC50 (nM), CGRP-stimulated CLR/RAMP1 cAMP assay” value did it give?
The value was 4.7 nM.

Target: T1, CLR/RAMP2 receptor
Assay: cell-based or functional assay
Remark: another data set of the same source

For Palmitoyl-KGCRFGTCTVQKLAHQIYQFTDKDSAPVDPSSPHSY-NH2 (ends and bridges not checked) [SEQ ID NO: 92], which “EC50 (nM), CLR/RAMP2 arrestin assay” value is on record?
The value was 0.3 nM.

miniPEG-K(Palmitoyl)GCRFGTCTVQKLAHQIYQFTDKDSAPVDPSSPHSY-NH2 (ends and bridges not checked) [SEQ ID NO: 48] was tested. Which “EC50 (nM), CLR/RAMP2 arrestin assay” value did it give?
The value was 0.2 nM.

With Palmitoyl-KGCRFGTCTVQKLAHQIYQFTDKDVAPRSKISPQGY-NH2 (ends and bridges not checked) [SEQ ID NO: 103] as the binder, how does the “EC50 (nM), CLR/RAMP2 arrestin assay” value read?
The value was 0.7 nM.

With KGCRFGTCTVQKLAHQIYQFTDKDKDNVAPRSKISPQGY (N-terminal miniPEG; palmitoyl on Lys 1 side chain, K(PAL); C-terminal amide) [SEQ ID NO: 69] as the binder, how does the “EC50 (nM), CLR/RAMP2 arrestin assay” value read?
Its value is 0.6 nM.

Target: T2, CLR/RAMP3 receptor
Assay: cell-based or functional assay
Remark: another data set of the same source

Which “EC50 (nM), CLR/RAMP3 cAMP assay” value does the source give for miniPEG-K(Palmitoyl)GCRFGTCTVQKLAHQIYQFTDKDVAPRSKISPQGY-NH2 (ends and bridges not checked) [SEQ ID NO: 101] here?
Its value is 0.5 nM.

For Palmitoyl-KGCRFGTCTVQKLAHQIYQFTDKDSAPVDPSSPHSY-NH2 (ends and bridges not checked) [SEQ ID NO: 92], which “EC50 (nM), CLR/RAMP3 cAMP assay” value is on record?
Its value is 0.2 nM.

Which “EC50 (nM), CLR/RAMP3 cAMP assay” value does the source give for miniPEG-K(Palmitoyl)GCRFGTCTVQKLAHQIYQFTDKDSAPVDPSSPHSY-NH2 (ends and bridges not checked) [SEQ ID NO: 48] here?
The value was 0.07 nM.

Palmitoyl-KGCRFGTCTVQKLAHQIYQFTDKDVAPRSKISPQGY-NH2 (ends and bridges not checked) [SEQ ID NO: 103] was tested. Which “EC50 (nM), CLR/RAMP3 cAMP assay” value did it give?
Its value is 0.3 nM.

How did the “EC50 (nM), CLR/RAMP3 cAMP assay” value turn out when KGCRFGTCTVQKLAHQIYQFTDKDKDNVAPRSKISPQGY (N-terminal miniPEG; palmitoyl on Lys 1 side chain, K(PAL); C-terminal amide) [SEQ ID NO: 69] was run?
The value was 0.6 nM.

Target: T3, CLR/RAMP1 receptor
Assay: cell-based or functional assay
Remark: another data set of the same source

For Palmitoyl-KGCRFGTCTVQKLAHQIYQFTDKDSAPVDPSSPHSY-NH2 (ends and bridges not checked) [SEQ ID NO: 92], which “EC50 (nM), CLR/RAMP1 cAMP assay” value is on record?
The value was 0.4 nM.

For miniPEG-K(Palmitoyl)GCRFGTCTVQKLAHQIYQFTDKDSAPVDPSSPHSY-NH2 (ends and bridges not checked) [SEQ ID NO: 48], which “EC50 (nM), CLR/RAMP1 cAMP assay” value is on record?
The value was 0.3 nM.

With Palmitoyl-KGCRFGTCTVQKLAHQIYQFTDKDVAPRSKISPQGY-NH2 (ends and bridges not checked) [SEQ ID NO: 103] as the binder, how does the “EC50 (nM), CLR/RAMP1 cAMP assay” value read?
The value was 4.5 nM.

Source: patent US20190010203A1 (ADEPTHERA, published 2019)
